The source of these data is patent US20230338431.

The series deals with cAMP response element-binding protein 1 (CREB1) (UniProt P16220).
cAMP response element-binding protein 1 (CREB1), sequence (P16220 whole entry): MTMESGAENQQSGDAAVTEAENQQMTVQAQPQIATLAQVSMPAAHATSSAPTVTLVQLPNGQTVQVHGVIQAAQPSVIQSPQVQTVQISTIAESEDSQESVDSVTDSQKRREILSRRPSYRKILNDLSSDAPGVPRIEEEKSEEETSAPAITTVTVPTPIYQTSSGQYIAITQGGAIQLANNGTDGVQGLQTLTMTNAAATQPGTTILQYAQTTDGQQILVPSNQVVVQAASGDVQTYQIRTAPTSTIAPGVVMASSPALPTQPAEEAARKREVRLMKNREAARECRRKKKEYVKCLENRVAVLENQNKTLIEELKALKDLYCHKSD

In the case of protein kinase B (AKT) subunit AKT1, the “p-CREB1 expression after siRNA against AKT1, AKT2 and AKT3, immunoblotting assay” value was “only AKT1 phosphorylated and activated its downstream effector cAMP response element-binding protein 1 (CREB1)”.
